Reference: US8426179B2, “Synthetic peptide and peptide conjugates and related tissue coupling methods via transglutaminase enzyme” (priority 2007, dated 2013)

What was measured:
[1] = Hydrolysis of the hydrocortisone prodrugs in solution (buffers); type: physicochemical; settings: Buffer 1, 4° C.
Description: This solution also contained 2 mM 6α-methyl prednisolone as an internal standard. The samples were then stored at −20° C. until analyzed with RP-HPLC and eluted with a linear gradient of 24-55% acetonitrile in water with 0.1% TFA. The amount of hydrocortisone hydrolyzed from the prodrug was determined by comparing its peak area to that of 6α-methyl prednisolone. […] Thirty microliter samples were collected at 10, 20, 30, and 60 minutes and analyzed as previously described.

[2] = test system: articular surface of cartilage; assay: Coupling of hydrocortisone prodrugs to the articular surface of cartilage via tTG; type: biochemical, bovine; settings: 1.0 mM prodrug with tTG, immunohistochemistry and quantification
Description: Modified tissue samples were immersed in tissue freezing media and frozen at −80° C. until use. Tissue slices (25 μm thick) were cut using a cryostat (Microm HM505N, Carl Zeiss) and the freezing media was removed with 3 washes of Buffer 1. Blocking was performed with 4% goat serum in Buffer 1 (blocking buffer) for 1 hour at room temperature. The tissue sections were then incubated with 10 μg/mL mouse anti-hydrocortisone antibody for 1.5 h in the blocking buffer at room temperature, rinsed 3 times with Buffer 1 for 5 minutes each, and then incubated with fluorescein conjugated goat anti-mouse antibody (1/200) in blocking buffer for 1 hour. Samples were rinsed again with Buffer 1 and then imaged using a Leica epifluorescent microscope (λex=495 nm, λem=520 nm for fluorescein) and a SPOT RT digital camera (Diagnostic Instruments, Sterling Heights, Mich.).

## hydrocortisone-GFKG-PEG [TRIP-PC]
[1]
  T50% of hydrolysis: 57.8 h
[2]
  bound hydrocortisone, TRIP-C compared with TRIP-PC: no detectable difference in bound hydrocortisone
